Test results reported in the RNAGym collection of RNA variant scans (doi:10.7554/elife.90254).

B1: LINE1-full (parent)
chain: UACGUAGGUGGUUUUCCCCUGAUAGUGCUAAGGGGGCCUGGAAGUUUGGACUGGGCAGAGCUCAACACAGCGUGGCAAAGUGGCUGUGGCUAGACUGCCUCUCUGGAUUCCUCGUCACUCAGCAGGGCAUCUCUGAGAGAAAUGCC

Variants of: B1
Assay: self-cleavage, relative activity (ratio to wild type); higher = more cleavage; in vitro, sequencing; the parent is a self-cleaving ribozyme

With UACUUAGGUGGUUUUCCCCUGAUAGUGCUAAGGGGGCCUGGAAGAUUGGACUGGGCAGAGCUCAACACAGCGUGGCAAAGUGGCUGUGGCUAGACUGCCUCUCUGGAUUCCUCGUCACUCAGCAGGGCAUCUCUGAGAGAAAUGCC [G4U U45A] as the variant, how does the self-cleavage read?
Its self-cleavage is 1.04.

For UACGUAGGUGGUUAUCCCCUGAUAGUGCUAAGGGGGCCUGGAAGUUUGGACUGGGCAGAGCUCAACACAGCGUGGCAAAGUGGCUGUGGCUAGACUGCCUCUCUGGAUUCCUCGUCACUCAGCAGGGCAUCUCUGGGAGAAAUGCC [U14A A136G], which self-cleavage is on record?
The self-cleavage was 0.97.

For UACGUAGGUGGUUUUCCCCUGAUAGUGCUAAGGGGGCCUGGAAGUUUGGACUGGGCAGAGCUCAGCACAGCGUGGCAAGGUGGCUGUGGCUAGACUGCCUCUCUGGAUUCCUCGUCACUCAGCAGGGCAUCUCUGAGAGAAAUGCC [A65G A79G], which self-cleavage is on record?
Its self-cleavage is 0.09.

With UACGUAGGUGGUUUUCCCCUGAUAGUGCUAAGGGGGCCUGGAAGUUUGGACUGGGCAGAGCUCAACACAGCGUGGCAAAGUGGCUGUGGCUAGACUGUCUCUCUGGAUUCCUCGUCACUCAGCAGGGCAUCUCUGGGAGAAAUGCC [C98U A136G] as the variant, how does the self-cleavage read?
The self-cleavage was 0.55.

With AACGUAGGUGGUUAUCCCCUGAUAGUGCUAAGGGGGCCUGGAAGUUUGGACUGGGCAGAGCUCAACACAGCGUGGCAAAGUGGCUGUGGCUAGACUGCCUCUCUGGAUUCCUCGUCACUCAGCAGGGCAUCUCUGAGAGAAAUGCC [U1A U14A] as the variant, how does the self-cleavage read?
Its self-cleavage is 0.89.

For UACGUAGGUGGUUUUCCCCUGAUAGUGCUAAGGGCGCCUGGAAGUUUGGACUGGGCAGAGCUCAACACAGCGUGGCAAAGUGGCUGUGGCUAGACUGCCUCUCUGGAUUCCUCGUCACUCAGCAGGGCAUCUCUGAGAGAAAUGCC [G35C], which self-cleavage is on record?
The self-cleavage was 1.31.

With UACGUAGGUGGUUUUCCCCUGAUAGUGCUAAGAGGGCCUGGAAGUUUGGACUGGGCAGAGCUCAACACAGCGUGGCAAAGUGGCUGUGGCUAGACUGCCUCUCUGGACUCCUCGUCACUCAGCAGGGCAUCUCUGAGAGAAAUGCC [G33A U108C] as the variant, how does the self-cleavage read?
The self-cleavage was 1.47.

For UACGUAGGUGGUUUUCCCCUGAUAGUGCUAAGGGGGCCUGGAAGUUUGGACUGGGCAGAGCUCAACACAGCAUGGCAAAGUGGCUGAGGCUAGACUGCCUCUCUGGAUUCCUCGUCACUCAGCAGGGCAUCUCUGAGAGAAAUGCC [G72A U87A], which self-cleavage is on record?
The self-cleavage was 0.07.

For UACGUAGGUGGUUUUCCCCUGAUAGUGCUAAGGGGGCCUGGAAGUUUGGACUGGGCAGAGUUCAACACAGCGUGGCAAAGUGGCUGUGGCUAGACUGCCUCUCUGGAUUCCUCGUCACCCAGCAGGGCAUCUCUGAGAGAAAUGCC [C61U U119C], which self-cleavage is on record?
Its self-cleavage is 0.05.

Which self-cleavage does the source give for UACGUAGGUGGUUUUCCCCUGAUAGUGCUAAGGGGGCCUGGAAGUUUGGACUGGGCAGAGCUCAACACAGCGUGGCAAAGUGGCUGGGGCUAGACUGCCUCUCUGGAUUCCUCGUCACUCAGCAGGGCAUCUCUGUGAGAAAUGCC [U87G A136U] here?
The self-cleavage was 0.18.

For UACGUAGGUGGUUUUCCCCUGAUAGAGCUAAGGGGGCCUGGAAGUUUGGACUGGGCAGAGCUCAACACAGCGUGGCAAAGUGGCUGUGGCUAGACUGCCUCUCUGGAUUCCUCGUCACUCGGCAGGGCAUCUCUGAGAGAAAUGCC [U26A A121G], which self-cleavage is on record?
The self-cleavage was 1.46.

Which self-cleavage does the source give for UACGUAGGUGGUUUUCCCCUGAUAGUGCUAAGGGGGCCUGGAAGUUUGGACUGUGCAGAGCUCAACACAGCGUGGCAAAGAGGCUGUGGCUAGACUGCCUCUCUGGAUUCCUCGUCACUCAGCAGGGCAUCUCUGAGAGAAAUGCC [G54U U81A] here?
Its self-cleavage is 0.39.

For UACGUAGGUGGUUUUCCCCUGAUAGUGCUAAGGGGGCCUGGAAGUUUGGACUGGGCAGAGCUCAACACAGCGUGCCAAAGUGGCUGUGGCUAGACUGCCUCUCUGGAUUCCUCGUCACACAGCAGGGCAUCUCUGAGAGAAAUGCC [G75C U119A], which self-cleavage is on record?
The self-cleavage was 0.95.

Which self-cleavage does the source give for UACGUAGGUGGUUUUCCCCUGAUAGUGCUAAGGGGGCCUGGAAGUUUGGACUGGGCAGAGCUCAACUCAGCGUGGCAAAGUGGCUGUGGCUAGACUGCCUCUCUGGAUUCCUCGUCACUCAGCAGGGCAUCUCUGAGAGAAGUGCC [A67U A142G] here?
The self-cleavage was 0.15.

Which self-cleavage does the source give for UACGUAGGUGGUUUUCCCCUGAUAGUGCUAAGGGGGCCUGGAAGUUUAGACUGGGCAGAGCUCAACACAGCGUGGCAAAGUGGCUGUGGCUAGACUGCCUCUCUGGAUUCCUCGUCACUCAGCAGGGCAACUCUGAGAGAAAUGCC [G48A U130A] here?
The self-cleavage was 0.91.

Which self-cleavage does the source give for UACGUAGGUGGUUUUCACCUGAUAGUGCUAAGGGAGCCUGGAAGUUUGGACUGGGCAGAGCUCAACACAGCGUGGCAAAGUGGCUGUGGCUAGACUGCCUCUCUGGAUUCCUCGUCACUCAGCAGGGCAUCUCUGAGAGAAAUGCC [C17A G35A] here?
The self-cleavage was 0.81.

For UACGUAGGUGGUUUUCCCCUGAUAGUGCUAAGGGGGCCUGGAGGUUUGGACUGGGCAGUGCUCAACACAGCGUGGCAAAGUGGCUGUGGCUAGACUGCCUCUCUGGAUUCCUCGUCACUCAGCAGGGCAUCUCUGAGAGAAAUGCC [A43G A59U], which self-cleavage is on record?
The self-cleavage was 0.82.

With UACGUAGGUGGUUUUCCCCUGAUAGUGCUAAGGGGGCCUGGAAGUUUGGACUGGGCAGAGCUCAACACAGUGAGGCAAAGUGGCUGUGGCUAGACUGCCUCUCUGGAUUCCUCGUCACUCAGCAGGGCAUCUCUGAGAGAAAUGCC [C71U U73A] as the variant, how does the self-cleavage read?
Its self-cleavage is 0.31.

With UACGUAGGUGGUUUUCCCCUGAUAGCGCUAAGGGGGCCUGGAAGUUUGGACCGGGCAGAGCUCAACACAGCGUGGCAAAGUGGCUGUGGCUAGACUGCCUCUCUGGAUUCCUCGUCACUCAGCAGGGCAUCUCUGAGAGAAAUGCC [U26C U52C] as the variant, how does the self-cleavage read?
Its self-cleavage is 0.98.

With UACGUAGGUGGUUUUCCCCUGAUAGUGCUAAGGGGGCCUGGAAGUUUGGACUGGGCAGAGCUCAACACAGCGUGGCAAAGUGGCUGUGGCUAGACUGCCUCUCUGGAUUCCUCGUCACUCAGCAGGGCAUCUCCGAGAGAGAUGCC [U134C A141G] as the variant, how does the self-cleavage read?
Its self-cleavage is 1.41.
